Results taken from a protein production outcome set (Wang et al. 2014).

Assay: label from the status in PepcDB records

Row | Sequence | protein production
1 | MSIFANLKDRMKAVFQPRSDILASQDAESTPGSRDALFAIEELSRAVRNDPDAVEIYLALGNLYRLRGDIDRAVQIRSSLIVRPGLDNRFRARAYLELGRDYRRGGFVDRALQAFDEAQRLGAERDAIILELAHLHADSGSFDLAAEQFGRVGHKPAQAHYLVRHAEDLCGQGEFAEAVKTLTRAVKVYPGSIEAWTTRIAMHIRSGEWRKAKSMLREAMQSVSPDRRFLVFDGILAITPPENAPDSVQQFEQNRCECVLPVISEQEPELLLHYYGALFLLRCGEREQAGNWLAKAMVLRPDFWAARLELLGISMDRQQLSPVFKGQLEYFVSQARHVKRFVCQNCGLRREQAFYLCPRCRSWHSATFRLSLQD | failed
2 | MSIIIPAYNEEENIKRAIKAALSQDYPVSEVIVVDDGSEDGTYERAKEIKDHRLKVLKIDHRGKAGAINEGLKIAKGSVIVTTDADSFMSKDAVRRLVERFYSDDVVAVGGQIRVIVESFMTLVQDIEHLRIAMYRRGKELENLSLAPGPLSAFRRDVLEKIGGIQRSIVEDYATTKIVKKYGRVVYAPKAKLYTRMPITLRDLWRQRKRWFLGDLQHHNLNDLLNLLLGDVIALLDVILPFIFLLEGSYLPLLAFVMFEVITMVIAVIWEGGSLIEALLFPVVLWFLALFYLSLHLYGYAVYGLKSLLRFTRS | failed
3 | MSINISELLQPITEQSPCGEDYSFSNEFHLIKKARTQDDVLLDQGDWVTELKQADWETVTSTSSNLLKTKTKDIRLLTWLSEGWANLYGFEGIYQGIELSHRLLDQFWNDIHPVVEDDDLDQRIALLQGLINQLPLLIKKTPLINTSPYYHLLNYENFLHHQNIRRKQSDEYEQLDGPSEIELFEQALFNTSKSFQYQNYQMFKHVVSQWQQLKDVLDRLMGVDAPSFAAIDSSLQDIDVNLRKIYKAEAFDTNPVATSSATASSHASETLSTEPMPTSNVNVNQPSFQPQTQNHIQNREQAIRVLQDISDYFQANEPHSPVSYMLQKTIKWSQMPLHEWLAQVIKDEHPLQLVQEALGVQPKNEYE | failed
4 | MSINLSKGDKIDLKKSNPGLSNILVGLGWDPVQQSGGGFFKSLFGGGQADIDCDASVFMLNQEGKLSGIKDLIYFGNLKSACKSVLHTGDNLTGEGTGDDEQILVNLDKVPSNIHKLLFVVNIYNCVDRKQHFGMIENAYIRVEDQGNKKEIAKYNLSDNYSEKTTLIVGAIYRKDGSWQFKAIGEGTKDAGLKEVMQNLDRIECAYGI | failed
5 | MSISDNSRDQLGELPAGRPLQSDFDNDLDYPRLGSVTFRRGTLTENQQTMWDEKWPELGRVLEDELIDVDAWFGREGAKTIVEIGSGTGTSTAAMAPLEADTNIVAVELYKPGLAKLMGSVVRGEIDNVRMVRGDGIEVLNRMFADGSLDGIRVYFPDPWPKARHNKRRIIQSGPLNLFAKKLKPGGVLHVATDHADYAEWINELVEVEPLLEYKGWPWEECPQLTDRQVITKFEGKGLEKDHVINEYLWQKVQN | failed
6 | MSITLITAAPGAGKTIFAVWNIIKPAVEADRVVYTAGIPELKLPAISLSYSQVKRWADRELVEVENPSGIPIPDDEKPSRLQNITEGALIVIDEVQYLWPASGSREPGEDIKYLTKHRHHGLEFVLITQAPQLIHKNVLAVVDKHIHMLSDWHGRKRYEWPEYCATVRATSSKLKAVSQRYELPKEAYGLYRSASMHI | failed
7 | MSIWSPLLFNAEGKKQGYDCRYLHKLTDQGNKLSDSGLPVIFTLAHLCAMAGVSFSLIHSCVSRKYDPYRSFTIKKRSGGYRQIVVPEPELMHLQRWINEFILKRAKVHSCAAAYISGSDIKMNASKHLGANWLIKLDIQRFFESISELQVYYIFHRLGYPKLLSFEMARICTRVDTQSNRHFRPRWNNRIHHFEILEYCDSRVGYLPQGAPTSPSLSNLTCRKLDKEIYDLSCRSDCRYTRYADDFAFSFIDLDREKASNFVNQVSRIISSYGFRKNARKTKIIPPGSKKIITGLVLGNGKVHLQKELKDYIRQNIYFATKYGVDEHCKKRGFVSIDGFYNHLEGIVNFALFIEPDFGEKAFEEFRAIKWPSLIVGLHA | failed
8 | MSKARKTAASSGEPDFWRVARDWLHHWLPKVRGSSPKTVEAYRIGLESYVRWLETTEGTQRSHIGFGHFDRARLGRWVEWMRTERGYSDRTIMLRMTTMRVFLDHAGLEHPALTALGNDAAGIRVKPPARKPVDHLGEEHTKALLTAWGTGDAKSRRNRMLLILMYDTAARIGELAALTIADVGMDKPARVTLTGKRGKSRVVPLGERTRTHLAAYLEEFHPGPSMRDGDRPLFHSTRNGAIQPLSVDRIDEILKTAAARARRGTCPSMPERVHCHLIRRTRAMDLYQQGVPLPLIMQLLGHESMSTTSAFYAFATLDMMRKAVDAANPGPDPSKETWLSEQRLRQLHTLK | failed
9 | MSKELTAKKRAALNRLKTVRGHLDGIVRMLESDAYCVDVMKQISAVQSSLERANRVMLHNHLETCFSTAVLDGHGQAAIEELIDAVKFTPALTGPHARLGGAAVGESATEEPMPDASNM | not failed
10 | MSKFRSCSWKCSDMGKSLCGAGGLVWTPPHPLLRKALSHRGRGVKDTNFVGMTTRAVRKGTLRARALRRTQTVEEKTLWLALRNRFLNVKFRRQWPMGGYVVDFVCFEAKLIVELDGSQHAEEAARDYDAVRTEFLEAGGFTVLRFWNNEVRKNLEGVLLEIQKRLP | failed
11 | MSKGKYIHFDTLVSAKTGDIVAIQDILNQFRGYIISRSLRTAYRSDGSLYQYIDTDVQHKMETDLIEAIYKFEIRLEHHHHHH | failed
12 | MSKGTLFTIAVTPKIPPRLARLEDLANDLWYSWDRATRSLFSRLDPSLWGAVGHNPKAFLKRVDETLLLKAAEDQVFLANYNSIVSAYDYYHSETLWNGIDASLNPSDKIAYFCFEFGFHESFPIYSGGLGILAGDHCKAASDLRLPLIGIGLLYRQGYFFQTIDNQGNQQVIYADSDFSDLPVAPVLREDGSEVRIKVELLQRPVAIKVWRAKIGHVSLYLLDTDLPENSPGDRDITHQLYGGDRVMRIEQEIVLGVGGIRALREMGIEPTIWHINEGHAAFMMLERIRGHVQQGLDFPAALEAVAASTVFTTHTAVPAGHDHFSDDMMNAYFEPFYRDLKITREDFLALGRVPGSDDFNMTDLAIRASRYQNGVSKIHGNVSARICKDVWPQIEPEENPMSYITNGVHVPTFLAQEWADLFDRYLGYEWRNNMCDTEYWSRIDTIPDHLFWSVRQTLKSQMFYGIRARLTTQNARNHGSEAHLDRLLRFTDPINPNILTLGFGRRFATYKRATLLFEDLDWLRRIMLDQEHPVMIVFAGKAHPADVPGQDLIRRVSEIARMPEFEGQILLVEDYDLRLARRLVAGVDVWINSPVYPLEASGTSGMKAGINGTINLSVLDGWWGEGYDGKNGWAIKPGPENMDAVRRDKEESKDFYETLQDHVVPLYYNRDKLGYSSGWVKMAKNSMKSLLPRYNATRMITEYTMKFYLPAKKQGALYAADDFSNARKIAAWKAFVREAWPGVTIRRLDKPFSQISFGEAVDFRVAVRLNGLHPEDVVVELLICRRLKKTTLCSFKHVRFQFRGIEEESAEHLFELDHTPDLCGKLDYYIRVYPYHALLTHPFEMGMMVWL | failed
13 | MSKHTVLFELGCEELPPKSLKTLRDALQAETVKGLKDAGLAFASIEAYAAPRRLALKIVDVDGAQADTQKRFDGPAVQAAYDAEGKPTKALEGFMRGQGITADQVSTFQAGKVEKVCYLKDVKGQTLDALLPQILQTALDNLPIAKRMRSAASRTEFVRPVKWVVLLKDDQIIEATIQDHQAGNVTYGHRFHAPEAVTLAHANDYLAALEKAYVVANFEKRQATIQEQVKKLADEVNATAIVPADLLDEVTSLVEWPVALRANFEERFLAVPQEALITTMQDNQKYFCLINSEGKLQPYFITVSNIESKDPTQIIEGNEKVVRPRLSDAEFFFLQDQKQPLASRKEKLANMVFQAQLGTLWDKSTRIAKLAVALSPITGANPADAEKAALLAKCDLTSELVGEFPELQGIAGTYYARIEGENTEVSEALGEQYLPKFAGDVLPKTKTGTTIALADRLDTLVGIFGIGQAPTGSKDPFALRRSAIGILRLIIENELDVTIEELVNLALQGYGDIVKDHDKTLADAVAFLEGRYRAKYEDQGVAVDVLQAVQALAPKS | failed
14 | MSKKIFAALIVAVVATFAGYNIYQSQRAEMEMSDLAMANIEALANDGESSTETTWSCKGTVGTCGAKCGLCGTTIPKSKGTLTGSHKCSM | failed
15 | MSKKPHSIKVPTQYRATAKILKAALEQQKCIKTLIFAEKHARTRSLHTVLKKFSENRVALEKAIEETGLLRDNPSFDPSLAKILVTELLFGRKELNGESKPVQTVRSYKDRLLNSIRDFGVQRKEPNPRYVRINTNLYSLAEALDYLHKSDWRRKELPADASYADFLTAIKSLAENEFMTDLHVEGVLIFPAKWSNYWVRHPLVHSKRFILQNKATCLAAELLAPPSGATVLDMCAAPGMKTVHICNVMQNKGCIYSVEQDHVRYNTLCEITKDAGCDIVKPILGDALNLTPERFPDVEYILVDPSCSGSGMQNRMTVCDEPKEDKRLQKLQGLQIKILSHAMGAFPNVKRIAYCTCSLWKEENEQVVQRCLQLNPSFKLLSCKKALRNKWHNVGDKDYPNIGKNVLYCQPDSDLTDGIFLALFEKRREGEKD | failed
16 | MSKKQKPTGNTGRKNQIKGKYAERSRKNGFGKFCLILQVIMSAAFMGVLVLLDMLPLKYLALAALILFFLWCITFTTQAVRKKKGVTGKVYSILLIAVLAVGTYYIAKTNDMIAAITSGGSKVDKMVVAVLKDDPAETLEDASDYEFGVQFNTGAENMKAAVMDIQDQIGDISTTEYKSVQEQAEALISGEVDAIIYNQSYTELMENAVEGYNDQIRIIYKHEIETKFDFGGSAKDDSLTKKPFTVYISGIDTYGDDADDDRDSIRSDVNIIAVVNPTTHQILLITTPRDYYIPIPGISDGMNDKLTHAGTYGIDVSMETLGALYETDINYYVRLNFSSLIEIVDILGGVDVYSEYAFTTGWESGYEMEVQQGINHFDGKQALAFSRERHALEGGDNQRGKNQQAVITAMLKKVLSPTMLLKANSIINQVSQDVETNISQGQLNSLVKSQLKSGAKWTIQSVAASGTDGEDYCYSVPDMPLYVLYPDEEVVNSIVELANIVEEGGSLESGEALN | failed
17 | MSKPEFIARQGRKPTGWLGHIVARVMARETRPENDRALSFLDLADGDSLIDIGCGHGETLFQADRIVRLSGSVGVDFSEVMLKRARARNRDAVWDTRMAFHCADTAALPFPDKRFGKALSVHTIYFWPNPAAHLAEAFRVLRRGGRFLFCYRSTADRRAVEEFPDTVYRFPSVQEVEEKLKLVGFLGPETTTEDIKGRLTHWSIAEKPLEHHHHHH | not failed
18 | MSKRWLYSLQLIFFITLVFVLVTGCYSHPNQNIQSANSKPVTSECRIIKHPLGETCIPLHPQRIIAMDEDILEILVALDLKPIAVAINFDEWSSREKQLWQKAEGIDSIVIGNHGILNLEKMLLLKPDLILGLAESTDRKSYELFSQIAPTVTVDYAQTAWRDVLLRVGNIIGKTEQAQKLIAEFQQRIEKLRVIVKNKLGKTKISVVRVYNYFHKTIEFRSNFSFPGSLLVELGLSFPEKQNQIPTSPGFPFVFASLERLDLLDADVMFVTLDAGGEENFKKFQASPLWQKLKAVKNNCVYTVDSGYWIFGNIMSANAILDDLDKYLLQQCR | failed
19 | MSKSLGFKVSVSFVNIFALPFFFVLLYGSGFVGAKLGLPHSTPLSFLSLRFMAAGLILLIIAKLIGNQLPNWREAIHISVAGSLTVCLFSVGVFVSIDMGLSPAVSALIVALQPILVALFARKLVNEQLNLAQWFGLLFGFLGVIVVVIDSIETTSFSWVAIAMSVLALFGVTFGSLYQKRYCADMEIFYGGAIQSLVSGLICLALLPFFESFKVVWTGEFIISLVYMVVGVSLGALSLLYIMIQRGEVSRVASVFYLVPVSAAVSAYLLFGETIESTTLFGASIIALGIFLTNRKSQNNMVVSMNK | failed
